Results published in the Human Domainome abundance scans (Beltran et al. 2025).
± gives the uncertainty stated by the source.

B1: Double-stranded RNA-specific adenosine deaminase, residues 296 to 358; numbered along this chain, P55265 (parent)
chain: MAEIKEKICDYLFNVSDSSALNLAKNIGLTKARDINAVLIDMERQGDVYRQGTTPPIWHLTDK
B2: COUP transcription factor 1, residues 83 to 159; numbered along this chain, P10589 (parent)
chain: HIECVVCGDKSSGKHYGQFTCEGCKSFFKRSVRRNLTYTCRANRNCPIDQHHRNQCQYCRLKKCLKVGMRREAVQRG

Variants of: B1
Assay: abundance fitness (aPCA) (normalised: wild type 0, dead -1); higher = more abundant; growth selection in yeast, the domain comes from the species named
Settings: Homo sapiens

Compared with MAEIKEKICDYLFNVSDSSALNLAKNIGLTKARDINAVLIDMERQGDVYRQGTTPPIWHLTDS [K63S], MAEIKEKICDYLFNVSDSSALNLAKNIGLTKARDINAVLIDMERQGDVYRQGTTPPIWHLTDR [K63R] is higher in abundance fitness: -0.367 ± 0.11 for the first, 0.032 ± 0.1 for the second.

Compared with MAEIKEKICDYLFNVSDSSALNLAKNIGLTKARDINAVLIDMERQGDVYRQGTTPPIWHLTDY [K63Y], MAEIKEKICDYLFNVSDSSALNLAKNIGLTKARDINAVLIDMERQGDVYRQGTTPPIWHLTDP [K63P] is higher in abundance fitness: -0.634 ± 0.15 for the first, -0.341 ± 0.12 for the second.

MAEIKEKICDYLFNVSDSSALNLAKNIGLTKARDINAVLIDMERQGDVYRQGTTPPIWHLTDT [K63T] and MAEIKEKICDYLFNVSDSSALNLAKNIGLTKARDINAVLIDMERQGDVYRQGTTPPIWHLTDQ [K63Q] are within error of each other in abundance fitness: -0.297 ± 0.11 for the first, -0.79 ± 0.41 for the second.

Variants of: B2
Assay: as above
Settings: Homo sapiens

First: HIECVVCGDKSSGKHYGQFTCEGCKSFFKRSVRRNLTYTCRANRNCPIDQHHRNQCQYCRLKKRLKVGMRREAVQRG [C64R]
Second: HIECVVCGDKSSGKHYGQFTCEGCKSFFKRSVRRNLTYTCRANRNCPIDQHHRNQCQYCRLKKSLKVGMRREAVQRG [C64S]
The abundance fitness of the first is lower: -0.908 ± 0.077 for the first, -0.475 ± 0.062 for the second.

HIECVVCGDKSSGKHYGQFTCEGCKSFFKRSVRRNLTYPCRANRNCPIDQHHRNQCQYCRLKKCLKVGMRREAVQRG [T39P] and HIECVVCGDKSSGKHYGQFTCEGCKSFFKRSVRRNLTYTCRANRNCPIDQHHRNQCQYCRLKICLKVGMRREAVQRG [K63I] are within error of each other in abundance fitness: -0.359 ± 0.18 for the first, -0.402 ± 0.1 for the second.

HIECVVCGDKSSGKHYGQFTCEGCKSFFKRSVRRNLTYTCRANRNCPIDQHHRNQCQYCRLKCCLKVGMRREAVQRG [K63C] and HIECVVCGDKSSGKHYGQFTCEGCKSFFKRSVRRNLTYTCRANRNCPIDQHHRNQCQYCRLKECLKVGMRREAVQRG [K63E] are within error of each other in abundance fitness: -0.17 ± 0.063 for the first, -0.161 ± 0.044 for the second.

Going from HIECVVCGDKSSGKHYGQFTCEGCKSFFKRSVRRNLTYTCRANRNCPIDQHHRNQCQYCRLKKCLKLGMRREAVQRG [V67L] to HIECVVCGDKSSGKHYGQFTCEGCKSFFKRSVRRNLTYTCRANRNCPIDQHHRNQCQYCRLKKCLKWGMRREAVQRG [V67W], the abundance fitness falls from -0.118 ± 0.038 to -0.325 ± 0.053.

HIECVVCGDKSSGKHYGQFTCEGCKSFFKRSVMRNLTYTCRANRNCPIDQHHRNQCQYCRLKKCLKVGMRREAVQRG [R33M] and HIECVVCGDKSSGKHYGQFTCEGCKSFFKRSVTRNLTYTCRANRNCPIDQHHRNQCQYCRLKKCLKVGMRREAVQRG [R33T] are within error of each other in abundance fitness: -0.045 ± 0.08 for the first, 0.096 ± 0.068 for the second.

HIECVVCGDKSSGKHYGQFTKEGCKSFFKRSVRRNLTYTCRANRNCPIDQHHRNQCQYCRLKKCLKVGMRREAVQRG [C21K] and HIECVVCGDKSSGKHYGQFTSEGCKSFFKRSVRRNLTYTCRANRNCPIDQHHRNQCQYCRLKKCLKVGMRREAVQRG [C21S] are within error of each other in abundance fitness: -0.818 ± 0.23 for the first, -0.757 ± 0.13 for the second.

Compared with HIECVVCGDKSSGKHYGQFTCEGCKSFFKRSVRRNLTYTCRANRNCPIDQHHRNQCQYCRLKKCNKVGMRREAVQRG [L65N], HIECVVCGDKSSGKHYGQFTCEGCKSFFKRSVRRNLTYTCRANRNCTIDQHHRNQCQYCRLKKCLKVGMRREAVQRG [P47T] is higher in abundance fitness: -0.322 ± 0.089 for the first, -0.14 ± 0.063 for the second.

HIECVVCGDKSSGKHYGQFTCEGCKSFFKRSVRRNLTYTCRANRNCCIDQHHRNQCQYCRLKKCLKVGMRREAVQRG [P47C] and HIECVVCGDLSSGKHYGQFTCEGCKSFFKRSVRRNLTYTCRANRNCPIDQHHRNQCQYCRLKKCLKVGMRREAVQRG [K10L] are within error of each other in abundance fitness: -0.206 ± 0.085 for the first, -0.313 ± 0.056 for the second.

HIECVVCGDYSSGKHYGQFTCEGCKSFFKRSVRRNLTYTCRANRNCPIDQHHRNQCQYCRLKKCLKVGMRREAVQRG [K10Y] and HIECVVCGDCSSGKHYGQFTCEGCKSFFKRSVRRNLTYTCRANRNCPIDQHHRNQCQYCRLKKCLKVGMRREAVQRG [K10C] are within error of each other in abundance fitness: 0.045 ± 0.098 for the first, -0.105 ± 0.075 for the second.

HIECVVCGDKSSGKHYGGFTCEGCKSFFKRSVRRNLTYTCRANRNCPIDQHHRNQCQYCRLKKCLKVGMRREAVQRG [Q18G] and HIECVVCGDKSSGKHYGQFTCEGCKSFFKRSVRRNLTYTCRANRNCPIDQHHRNQCQYCRLKKCLKVGMHREAVQRG [R70H] are within error of each other in abundance fitness: -0.061 ± 0.047 for the first, -0.004 ± 0.085 for the second.

HIECVVCGDKSSGKHYSQFTCEGCKSFFKRSVRRNLTYTCRANRNCPIDQHHRNQCQYCRLKKCLKVGMRREAVQRG [G17S] and HIECVVCGDKSSGKHYGQFTCEGCKSFFKRSVRRNLTYTCRANRNCPIDQHHRNQCFYCRLKKCLKVGMRREAVQRG [Q57F] are within error of each other in abundance fitness: -0.191 ± 0.067 for the first, -0.036 ± 0.11 for the second.

First: HIECVVCGDKSSGKHYGQFTCEGCKSFFKRSVRRNLTYTCRANRMCPIDQHHRNQCQYCRLKKCLKVGMRREAVQRG [N45M]
Second: HIECVVCGDKSSGKHYGQFTCEGCKSFFKRSVRRNLTYTCRANRNCPIDQHHRNQCQYCMLKKCLKVGMRREAVQRG [R60M]
The abundance fitness of the first is lower: -0.245 ± 0.38 for the first, 0.283 ± 0.038 for the second.

Compared with HIECVVCGDKSSGKHYGQFTCEGCKSFFKRSVRRNLTYTCRANRNCPIDQHHRNQCQYCWLKKCLKVGMRREAVQRG [R60W], HIECVVCGWKSSGKHYGQFTCEGCKSFFKRSVRRNLTYTCRANRNCPIDQHHRNQCQYCRLKKCLKVGMRREAVQRG [D9W] is lower in abundance fitness: 0.139 ± 0.038 for the first, -0.14 ± 0.076 for the second.

HIECVVCGDKSSGKHYGQFTCEGCKSFFKRSVRRNLTYTCRANRNCPIDQHHRNQCQFCRLKKCLKVGMRREAVQRG [Y58F] and HIECVVCGDKSSGKHYGQFTCEGCKSFFKRSVRRNLTYTCRANRNCPIDQHHRNQCQECRLKKCLKVGMRREAVQRG [Y58E] are within error of each other in abundance fitness: 0.072 ± 0.088 for the first, 0.027 ± 0.04 for the second.

First: HIECVVCGDKSSGKHYGQFTCEGCKSFFKRSVRRNLTYTCRATRNCPIDQHHRNQCQYCRLKKCLKVGMRREAVQRG [N43T]
Second: HIECVVCGDKSSGKHYGQFTCEGCKSFFKRSVRRNLTYTCRANRNCPIDQHHRNQCQYCREKKCLKVGMRREAVQRG [L61E]
The abundance fitness of the first is higher: -0.051 ± 0.097 for the first, -0.38 ± 0.053 for the second.
